The values that follow come from PMC9549385.

This assay deals with human delta-opioid receptor (human) (UniProt P41143).

Substance [D-Ala2, D-Leu5]-enkephalin (peptide) returned an Emax of ERK1/2 phosphorylation (% of SNC80 maximum, In-Cell Western) in CHO-K1-hDOPr cells, 5 min stimulation of 36 % SNC80.
